Tests used:
[1] = molecular target: rat CNP receptor (NPR-B) (rat) (UniProt P16067); test: cell-based or functional assay
[2] = molecular target: rat ANP receptor (NPR-A) (rat) (UniProt P18910); test: cell-based or functional assay
rat ANP receptor (NPR-A) (rat), sequence (P18910 29-1057): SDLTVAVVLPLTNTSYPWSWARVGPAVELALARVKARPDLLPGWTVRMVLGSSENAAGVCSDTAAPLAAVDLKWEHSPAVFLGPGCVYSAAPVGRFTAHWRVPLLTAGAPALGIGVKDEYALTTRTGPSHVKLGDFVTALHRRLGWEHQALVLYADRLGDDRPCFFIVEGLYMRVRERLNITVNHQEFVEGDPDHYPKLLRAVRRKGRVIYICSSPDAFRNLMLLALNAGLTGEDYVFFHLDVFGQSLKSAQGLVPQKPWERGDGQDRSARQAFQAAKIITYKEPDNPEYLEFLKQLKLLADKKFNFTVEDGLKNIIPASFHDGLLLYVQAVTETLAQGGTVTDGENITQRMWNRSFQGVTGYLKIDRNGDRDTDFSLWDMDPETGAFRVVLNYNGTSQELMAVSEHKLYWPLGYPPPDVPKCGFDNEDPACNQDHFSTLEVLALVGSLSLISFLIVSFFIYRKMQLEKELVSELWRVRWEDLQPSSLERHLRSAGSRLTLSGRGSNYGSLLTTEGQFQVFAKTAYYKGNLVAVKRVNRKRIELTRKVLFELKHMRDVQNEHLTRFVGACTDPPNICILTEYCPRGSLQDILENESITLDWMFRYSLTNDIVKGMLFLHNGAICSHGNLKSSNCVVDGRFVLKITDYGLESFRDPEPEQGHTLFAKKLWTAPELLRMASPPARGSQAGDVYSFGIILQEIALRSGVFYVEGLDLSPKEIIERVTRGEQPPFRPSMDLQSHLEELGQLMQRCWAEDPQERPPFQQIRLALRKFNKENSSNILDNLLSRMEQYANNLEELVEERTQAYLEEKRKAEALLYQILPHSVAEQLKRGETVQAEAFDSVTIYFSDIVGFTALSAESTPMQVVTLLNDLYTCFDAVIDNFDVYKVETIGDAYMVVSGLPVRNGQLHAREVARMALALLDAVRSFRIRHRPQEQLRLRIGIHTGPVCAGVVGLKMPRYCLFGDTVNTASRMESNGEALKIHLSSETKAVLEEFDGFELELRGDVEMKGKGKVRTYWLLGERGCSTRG

rat CNP receptor (NPR-B) (rat), sequence (P16067 17-1047): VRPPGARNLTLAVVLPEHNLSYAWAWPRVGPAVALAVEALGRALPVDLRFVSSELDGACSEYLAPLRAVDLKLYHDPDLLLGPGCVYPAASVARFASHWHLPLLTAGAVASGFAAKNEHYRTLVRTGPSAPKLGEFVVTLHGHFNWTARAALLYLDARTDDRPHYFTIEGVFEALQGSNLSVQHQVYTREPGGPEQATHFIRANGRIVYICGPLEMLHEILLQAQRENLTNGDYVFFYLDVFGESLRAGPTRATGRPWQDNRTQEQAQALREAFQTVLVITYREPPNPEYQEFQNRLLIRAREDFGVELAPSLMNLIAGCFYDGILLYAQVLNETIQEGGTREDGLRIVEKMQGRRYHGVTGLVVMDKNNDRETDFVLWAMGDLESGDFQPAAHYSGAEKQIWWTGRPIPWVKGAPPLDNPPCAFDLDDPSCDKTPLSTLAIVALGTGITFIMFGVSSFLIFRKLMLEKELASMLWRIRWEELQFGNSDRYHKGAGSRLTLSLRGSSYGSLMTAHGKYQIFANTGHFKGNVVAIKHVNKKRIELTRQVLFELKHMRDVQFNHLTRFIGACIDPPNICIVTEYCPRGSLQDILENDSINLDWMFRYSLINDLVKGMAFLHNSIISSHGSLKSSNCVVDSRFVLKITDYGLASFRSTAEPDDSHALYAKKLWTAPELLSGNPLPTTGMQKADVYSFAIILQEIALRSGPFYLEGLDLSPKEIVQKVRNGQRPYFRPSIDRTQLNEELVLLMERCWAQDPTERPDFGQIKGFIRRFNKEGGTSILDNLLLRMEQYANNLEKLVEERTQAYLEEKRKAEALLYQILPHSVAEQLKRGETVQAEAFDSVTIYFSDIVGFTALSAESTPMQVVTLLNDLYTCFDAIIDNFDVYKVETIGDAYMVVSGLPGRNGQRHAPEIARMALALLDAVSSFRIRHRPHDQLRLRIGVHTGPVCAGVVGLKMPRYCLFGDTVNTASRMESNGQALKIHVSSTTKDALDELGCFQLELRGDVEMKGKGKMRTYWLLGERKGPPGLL

| Binder | EC50, luminescence signal of rat NPR-B cGMP reporter cell line [1] [pM] | EC50, fluorescence signal of rat NPR-A cGMP reporter CHO cell line (GCaMP6/CNGA2) [2] [pM] |
| --- | --- | --- |
| GLSKGCFGLKLDRIGSMSGLGC (peptide, from a related filing) [CNP (Bachem, H-1296)] | 24 | – |
| SLRRSSCFGGRIDRIGAQSGLGCNSFRY (peptide, from a related filing) [ANP (Bachem, H-2100)] | – | 220 |

Reference: US20210147504A1
